Values quoted from earlier work as cited in PMC12203939.
pKd: −log10 of the molar value.

Tests used:
[1] = target: PKA regulatory subunit RII (Homo sapiens) (UniProt P13861)
[2] = target: PKA regulatory subunit RI (Homo sapiens) (UniProt P10644)
PKA regulatory subunit RI (Homo sapiens), sequence (P10644 whole entry): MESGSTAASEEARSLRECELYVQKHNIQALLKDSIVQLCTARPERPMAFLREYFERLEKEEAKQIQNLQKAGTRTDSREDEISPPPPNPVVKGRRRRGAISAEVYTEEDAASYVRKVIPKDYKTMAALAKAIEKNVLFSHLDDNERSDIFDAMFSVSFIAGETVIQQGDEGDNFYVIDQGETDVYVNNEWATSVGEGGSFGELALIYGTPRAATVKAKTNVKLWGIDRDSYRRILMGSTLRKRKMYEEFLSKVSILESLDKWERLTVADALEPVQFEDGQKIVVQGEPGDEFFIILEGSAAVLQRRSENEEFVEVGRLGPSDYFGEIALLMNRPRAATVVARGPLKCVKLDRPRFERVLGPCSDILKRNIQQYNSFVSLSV

OPA1, sequence (O60313 195-960): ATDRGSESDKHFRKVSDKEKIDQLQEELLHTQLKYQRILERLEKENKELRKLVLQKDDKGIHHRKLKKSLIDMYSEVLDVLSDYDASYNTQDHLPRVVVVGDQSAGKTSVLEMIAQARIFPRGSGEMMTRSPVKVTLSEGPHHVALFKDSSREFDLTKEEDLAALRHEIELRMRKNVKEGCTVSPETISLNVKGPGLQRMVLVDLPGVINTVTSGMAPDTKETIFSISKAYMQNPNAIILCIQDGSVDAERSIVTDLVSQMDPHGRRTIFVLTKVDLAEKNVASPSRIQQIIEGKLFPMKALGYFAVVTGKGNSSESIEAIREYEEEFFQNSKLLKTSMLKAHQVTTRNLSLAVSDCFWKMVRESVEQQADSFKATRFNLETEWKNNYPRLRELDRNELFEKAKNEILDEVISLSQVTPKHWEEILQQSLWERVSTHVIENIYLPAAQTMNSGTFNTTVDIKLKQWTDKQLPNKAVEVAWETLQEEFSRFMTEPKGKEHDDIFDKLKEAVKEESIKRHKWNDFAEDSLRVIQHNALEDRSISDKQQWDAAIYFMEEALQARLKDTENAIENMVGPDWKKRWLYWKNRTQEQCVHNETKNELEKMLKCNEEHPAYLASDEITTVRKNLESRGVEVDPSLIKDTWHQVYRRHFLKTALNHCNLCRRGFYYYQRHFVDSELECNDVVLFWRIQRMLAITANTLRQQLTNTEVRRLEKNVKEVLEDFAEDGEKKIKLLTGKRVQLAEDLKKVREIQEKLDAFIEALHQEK
PKA regulatory subunit RII (Homo sapiens), sequence (P13861 2-404): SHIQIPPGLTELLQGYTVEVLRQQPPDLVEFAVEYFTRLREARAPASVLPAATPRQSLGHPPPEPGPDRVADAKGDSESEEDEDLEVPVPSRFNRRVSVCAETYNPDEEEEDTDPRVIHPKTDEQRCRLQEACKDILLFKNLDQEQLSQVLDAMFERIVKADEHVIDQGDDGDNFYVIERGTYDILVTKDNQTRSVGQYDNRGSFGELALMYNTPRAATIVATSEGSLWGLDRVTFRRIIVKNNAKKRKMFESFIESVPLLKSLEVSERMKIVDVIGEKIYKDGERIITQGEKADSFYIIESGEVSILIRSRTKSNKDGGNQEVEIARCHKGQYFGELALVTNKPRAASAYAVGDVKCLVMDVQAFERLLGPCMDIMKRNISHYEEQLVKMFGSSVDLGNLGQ

pKd [1]: 7.85
pKd [2]: 7.90
Substance: OPA1 (from UniProt O60313)
